What is called stoichiometry N is the number of molecules, sites or subunits per partner or assembly. A word on the Kd: it is the concentration at which binding is half-saturated.

The series “crystal structure” concerns the molecule itself. Put plainly: crystal structure.
In series [1] the target is T1, Cyanothece PCC7424 McdA(D38A) (Cyanothece sp. PCC 7424, UniProt B7KMS4 1-258, D38A).
T1 sequence (looked up): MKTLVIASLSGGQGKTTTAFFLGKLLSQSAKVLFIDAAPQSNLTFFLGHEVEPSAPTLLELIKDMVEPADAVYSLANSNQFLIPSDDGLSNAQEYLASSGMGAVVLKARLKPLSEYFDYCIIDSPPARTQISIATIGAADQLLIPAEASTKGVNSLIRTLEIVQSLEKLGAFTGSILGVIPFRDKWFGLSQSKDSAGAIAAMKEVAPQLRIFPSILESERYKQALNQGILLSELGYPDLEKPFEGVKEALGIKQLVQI
Put plainly: fluorescence polarisation. Background: In fluorescence polarisation assays a small probe gives low polarisation when free and higher when bound to something large.

B1: Cyanothece PCC7424 McdB (wild type) (natural protein, Cyanothece sp. PCC 7424, UniProt B7KMS5 1-156, looked up)
chain: MSNNALDRLINKQKPKVPPRNDVVSESVSNDIKTQGQQELNTSLPPSDTKATPEEMPTSHESETSLSQDQKPKLSPDTFETVRNTIRIESEVDESLRQLCHEERITKETWLEAAYLYLCEKPEELAQVIQLAQERLSQRKAIADYKRAKTMQERFL
B1: the “stoichiometry N” value in “crystal structure” came to 2. In addition, in series [1], the dissociation constant (Kd) came out at 1100 nM.

The values above are taken from PMC6582323 (Nucleic Acids Research, 2019).
